Data taken from patent US20240200091A1, “USE OF PROTOPORPHYRINOGEN OXIDASE” (BEIJING DABEINONG BIOTECHNOLOGY CO., LTD., priority 2021, published 2024).

What was measured:
Format in all cases: in vivo
[1] = system: Arabidopsis thaliana T1 plants; experiment: oxyfluorfen tolerance of transgenic Arabidopsis thaliana T1 plants (spray, grade of pesticide damage); settings: 7 DAT, number of plants of 24 per genotype, grades
How it was run: (§1)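 T1 lines expressing individual PPO variants, control-vector and wild-type plants (24 per genotype) were sprayed 18 days after sowing: oxyfluorfen 180/720, saflufenacil 25/100, flumioxazin 60/240, sulfentrazone 450/900 g ai/ha, or water. Damage graded 0–3 from injured leaf area at 7 DAT.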

[2] = system: Arabidopsis thaliana T1 plants; experiment: saflufenacil tolerance of transgenic Arabidopsis thaliana T1 plants (spray, grade of pesticide damage); settings: 7 DAT, number of plants of 24 per genotype, grades
How it was run: as §1

[3] = system: Arabidopsis thaliana T1 plants; experiment: flumioxazin tolerance of transgenic Arabidopsis thaliana T1 plants (spray, grade of pesticide damage); settings: 7 DAT, number of plants of 24 per genotype, grades
How it was run: as §1

[4] = system: Arabidopsis thaliana T1 plants; experiment: sulfentrazone tolerance of transgenic Arabidopsis thaliana T1 plants (spray, grade of pesticide damage); settings: 7 DAT, number of plants of 24 per genotype, grades
How it was run: as §1

[5] = system: transgenic soybean plants; experiment: saflufenacil tolerance of transgenic soybean plants (spray, grade of pesticide damage); design: key to damage levels rated at grade: grade 0 means that the growth status of plants is essentially consistent with those sprayed with the blank solvent (water); grade 1 means that the average of the damage levels of plants is less than 10%; grade 2 means that the average of the damage levels of plants is greater than 100%; grade 3 means that the average of the damage levels of plants is 100%; settings: for The grade of pesticide damage/plant: grade 0 / The grade of pesticide damage/plant: grade 1 / The grade of pesticide damage/plant: grade 2 / The grade of pesticide damage/plant: grade 3: 7 DAT, number of plants of 16 per genotype, grades
[6] = system: transgenic soybean plants; experiment: oxyfluorfen tolerance of transgenic soybean plants (spray, grade of pesticide damage); settings: for The grade of pesticide damage/plant: grade 0 / The grade of pesticide damage/plant: grade 1 / The grade of pesticide damage/plant: grade 2 / The grade of pesticide damage/plant: grade 3: 7 DAT, number of plants of 16 per genotype, grades; for tolerance to oxyfluorfen: soybean
[7] = system: transgenic soybean plants; experiment: flumioxazin tolerance of transgenic soybean plants (spray, grade of pesticide damage); settings: for The grade of pesticide damage/plant: grade 0 / The grade of pesticide damage/plant: grade 1 / The grade of pesticide damage/plant: grade 2 / The grade of pesticide damage/plant: grade 3: 7 DAT, number of plants of 16 per genotype, grades

B1: PPO1A: nucleotide sequence encoding microbial protoporphyrinogen oxidase PPO1 (SEQ ID NO:1), Arabidopsis thaliana/soybean common codon usage bias (nucleic acid)
DNA: ATGAAGGCTTTGGTACTCTACAGCACAAGAGACGGTCAGACACACGCGATCGCGTCGTACATTGCTAATTGCATGAAAGAGAAGTATGAGTGTGACGTTATTGATCTTCTTCATGCTCAGCATGTTACATTATCACGGTATGATAAGGTTCTTGTAGGAGCTTCTATACGATATGGACATTTCAATGCTGTGTTGGACAAATTTGTGAAGCAAAACATCCAACAACTAAACTCAATGCCTTCTGCTTTCTTTGCTGTTAATTTGACTGCCAGGAAACCTGAGAAACGTACTCCTCAGACCAATTCTTATGTTAGGAAGTTTCTTCTGGGGACACCATGGAAACCAGCAATGTGTGGCGTGTTTGCAGGAGCATTGAGGTATCCACGTTACAGATGGGTTGATAAAGTGATGATTCAGCTCATAATGAGAATGACTGGTGGTGAAACAGATACAAGCAAAGAAGTTGAGTATACTGATTGGGAACAAGTCAAAAAGTTCGCAGAAGATTTTGGAAAGCTAAGTTACAAGAAAACCCTCTGA
modifications: PPO1A Nucleotide Sequence
- The grade of pesticide damage/plant: grade 0 ([1]; oxyfluorfen 180 g ai/ha (1×)): 24 plant
- The grade of pesticide damage/plant: grade 1 ([1]; oxyfluorfen 180 g ai/ha (1×)): 0 plant
- The grade of pesticide damage/plant: grade 2 ([1]; oxyfluorfen 180 g ai/ha (1×)): 0 plant
- The grade of pesticide damage/plant: grade 3 ([1]; oxyfluorfen 180 g ai/ha (1×)): 0 plant
- The grade of pesticide damage/plant: grade 0 ([1]; oxyfluorfen 720 g ai/ha (4×)): 19 plant
- The grade of pesticide damage/plant: grade 1 ([1]; oxyfluorfen 720 g ai/ha (4×)): 5 plant
- The grade of pesticide damage/plant: grade 2 ([1]; oxyfluorfen 720 g ai/ha (4×)): 0 plant
- The grade of pesticide damage/plant: grade 3 ([1]; oxyfluorfen 720 g ai/ha (4×)): 0 plant
- The grade of pesticide damage/plant: grade 0 ([2]; saflufenacil 25 g ai/ha (1×)): 24 plant
- The grade of pesticide damage/plant: grade 1 ([2]; saflufenacil 25 g ai/ha (1×)): 0 plant
- The grade of pesticide damage/plant: grade 2 ([2]; saflufenacil 25 g ai/ha (1×)): 0 plant
- The grade of pesticide damage/plant: grade 3 ([2]; saflufenacil 25 g ai/ha (1×)): 0 plant
- The grade of pesticide damage/plant: grade 0 ([2]; saflufenacil 100 g ai/ha (4×)): 4 plant
- The grade of pesticide damage/plant: grade 1 ([2]; saflufenacil 100 g ai/ha (4×)): 20 plant
- The grade of pesticide damage/plant: grade 2 ([2]; saflufenacil 100 g ai/ha (4×)): 0 plant
- The grade of pesticide damage/plant: grade 3 ([2]; saflufenacil 100 g ai/ha (4×)): 0 plant
- The grade of pesticide damage/plant: grade 0 ([3]; flumioxazin 60 g ai/ha (1×)): 24 plant
- The grade of pesticide damage/plant: grade 1 ([3]; flumioxazin 60 g ai/ha (1×)): 0 plant
- The grade of pesticide damage/plant: grade 2 ([3]; flumioxazin 60 g ai/ha (1×)): 0 plant
- The grade of pesticide damage/plant: grade 3 ([3]; flumioxazin 60 g ai/ha (1×)): 0 plant
- The grade of pesticide damage/plant: grade 0 ([3]; flumioxazin 240 g ai/ha (4×)): 23 plant
- The grade of pesticide damage/plant: grade 1 ([3]; flumioxazin 240 g ai/ha (4×)): 1 plant
- The grade of pesticide damage/plant: grade 2 ([3]; flumioxazin 240 g ai/ha (4×)): 0 plant
- The grade of pesticide damage/plant: grade 3 ([3]; flumioxazin 240 g ai/ha (4×)): 0 plant
- The grade of pesticide: grade 0 ([4]; sulfentrazone 450 g ai/ha (1×)): 24
- The grade of pesticide: grade 1 ([4]; sulfentrazone 450 g ai/ha (1×)): 0
- The grade of pesticide: grade 2 ([4]; sulfentrazone 450 g ai/ha (1×)): 0
- The grade of pesticide: grade 3 ([4]; sulfentrazone 450 g ai/ha (1×)): 0
- The grade of pesticide: grade 0 ([4]; sulfentrazone 900 g ai/ha (2×)): 20
- The grade of pesticide: grade 1 ([4]; sulfentrazone 900 g ai/ha (2×)): 4
- The grade of pesticide: grade 2 ([4]; sulfentrazone 900 g ai/ha (2×)): 0
- The grade of pesticide: grade 3 ([4]; sulfentrazone 900 g ai/ha (2×)): 0
- The grade of pesticide damage/plant: grade 0 ([5]; saflufenacil 50 g ai/ha (2×)): 16 plant
- The grade of pesticide damage/plant: grade 1 ([5]; saflufenacil 50 g ai/ha (2×)): 0 plant
- The grade of pesticide damage/plant: grade 2 ([5]; saflufenacil 50 g ai/ha (2×)): 0 plant
- The grade of pesticide damage/plant: grade 3 ([5]; saflufenacil 50 g ai/ha (2×)): 0 plant
- The grade of pesticide damage/plant: grade 0 ([5]; saflufenacil 100 g ai/ha (4×)): 16 plant
- The grade of pesticide damage/plant: grade 1 ([5]; saflufenacil 100 g ai/ha (4×)): 0 plant
- The grade of pesticide damage/plant: grade 2 ([5]; saflufenacil 100 g ai/ha (4×)): 0 plant
- The grade of pesticide damage/plant: grade 3 ([5]; saflufenacil 100 g ai/ha (4×)): 0 plant
- tolerance to saflufenacil ([5]; soybean, saflufenacil at four-fold field concentration (100 g ai/ha)): high-resistant tolerance
- damage levels rated at grade ([5]; soybean, saflufenacil at two-fold field concentration (50 g ai/ha)): 0
- tolerance to saflufenacil ([5]; soybean, saflufenacil, compared with the control vector and CK): different extents of tolerance
- The grade of pesticide damage/plant: grade 0 ([6]; oxyfluorfen 360 g ai/ha (2×)): 16 plant
- The grade of pesticide damage/plant: grade 1 ([6]; oxyfluorfen 360 g ai/ha (2×)): 0 plant
- The grade of pesticide damage/plant: grade 2 ([6]; oxyfluorfen 360 g ai/ha (2×)): 0 plant
- The grade of pesticide damage/plant: grade 3 ([6]; oxyfluorfen 360 g ai/ha (2×)): 0 plant
- The grade of pesticide damage/plant: grade 0 ([6]; oxyfluorfen 720 g ai/ha (4×)): 16 plant
- The grade of pesticide damage/plant: grade 1 ([6]; oxyfluorfen 720 g ai/ha (4×)): 0 plant
- The grade of pesticide damage/plant: grade 2 ([6]; oxyfluorfen 720 g ai/ha (4×)): 0 plant
- The grade of pesticide damage/plant: grade 3 ([6]; oxyfluorfen 720 g ai/ha (4×)): 0 plant
- tolerance to oxyfluorfen ([6]; oxyfluorfen at four-fold field concentration (720 g ai/ha)): high-resistant tolerance
- tolerance to oxyfluorfen ([6]; oxyfluorfen at two-fold field concentration (360 g ai/ha)): high-resistant tolerance
- The grade of pesticide damage/plant: grade 0 ([7]; flumioxazin 120 g ai/ha (2×)): 16 plant
- The grade of pesticide damage/plant: grade 1 ([7]; flumioxazin 120 g ai/ha (2×)): 0 plant
- The grade of pesticide damage/plant: grade 2 ([7]; flumioxazin 120 g ai/ha (2×)): 0 plant
- The grade of pesticide damage/plant: grade 3 ([7]; flumioxazin 120 g ai/ha (2×)): 0 plant
- The grade of pesticide damage/plant: grade 0 ([7]; flumioxazin 240 g ai/ha (4×)): 16 plant
- The grade of pesticide damage/plant: grade 1 ([7]; flumioxazin 240 g ai/ha (4×)): 0 plant
- The grade of pesticide damage/plant: grade 2 ([7]; flumioxazin 240 g ai/ha (4×)): 0 plant
- The grade of pesticide damage/plant: grade 3 ([7]; flumioxazin 240 g ai/ha (4×)): 0 plant
- tolerance to flumioxazin ([7]; soybean, flumioxazin at different concentrations (120 and 240 g ai/ha)): high-resistant tolerance
